Experimental data from publication PMC10033635.

Target: African cichlid nackednavirus capsid protein (African cichlid nackednavirus (ACNDV))
Experiment: cryo-EM structure; capsids assembled in E. coli and purified; TRIS buffer (50 mM TRIS, 50 mM NaCl, 5 mM EDTA, 5 mM DTT), pH 7.5; icosahedral symmetry imposed

African cichlid nackednavirus capsid protein (natural protein)
stoichiometry N (protein dimers): 90
